In test [1] the target is MD2 (Homo sapiens) (UniProt Q9Y6Y9). Particulars: cited from earlier work.
The target in test [2] is MD2-TLR4 complex (rat (endogenous in NRK-52E)) (UniProt Q9QX05).
For test [3] the target is unchanged. This is another data set of the same source.
In test [4] the target is MD2 (Homo sapiens) (UniProt Q9Y6Y9). Particulars: cited from earlier work. This is another data set of the same source.

Read-outs that look alike come from different tables or passages of the source.

Sequence of UniProt Q9Y6Y9 (Q9Y6Y9 19-160): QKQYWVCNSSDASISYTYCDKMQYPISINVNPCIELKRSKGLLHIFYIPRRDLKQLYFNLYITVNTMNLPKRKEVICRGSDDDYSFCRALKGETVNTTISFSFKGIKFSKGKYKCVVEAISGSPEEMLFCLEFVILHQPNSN
Sequence of UniProt Q9QX05 (Q9QX05 whole entry, looked up, one chain of several): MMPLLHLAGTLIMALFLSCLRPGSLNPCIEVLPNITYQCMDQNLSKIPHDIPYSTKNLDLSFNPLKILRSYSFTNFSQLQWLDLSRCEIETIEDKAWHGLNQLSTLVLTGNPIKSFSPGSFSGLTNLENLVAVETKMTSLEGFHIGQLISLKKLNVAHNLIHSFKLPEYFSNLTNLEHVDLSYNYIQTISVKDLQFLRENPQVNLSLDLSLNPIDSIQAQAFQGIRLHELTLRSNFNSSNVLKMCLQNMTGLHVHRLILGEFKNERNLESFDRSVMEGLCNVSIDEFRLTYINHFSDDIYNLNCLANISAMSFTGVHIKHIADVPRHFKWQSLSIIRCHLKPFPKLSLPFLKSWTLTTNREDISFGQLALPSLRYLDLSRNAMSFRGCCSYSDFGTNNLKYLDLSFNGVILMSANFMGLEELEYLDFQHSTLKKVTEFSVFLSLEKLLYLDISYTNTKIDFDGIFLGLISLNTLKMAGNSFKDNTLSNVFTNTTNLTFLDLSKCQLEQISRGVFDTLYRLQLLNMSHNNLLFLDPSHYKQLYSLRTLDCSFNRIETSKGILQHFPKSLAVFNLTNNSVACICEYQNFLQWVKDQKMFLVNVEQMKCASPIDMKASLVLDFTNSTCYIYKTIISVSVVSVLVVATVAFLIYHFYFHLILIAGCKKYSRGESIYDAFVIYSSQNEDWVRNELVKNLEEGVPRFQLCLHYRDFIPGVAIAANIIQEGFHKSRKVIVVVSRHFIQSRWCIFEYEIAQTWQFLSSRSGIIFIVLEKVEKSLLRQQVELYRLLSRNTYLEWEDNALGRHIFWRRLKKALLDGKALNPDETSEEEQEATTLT

With Angiotensin II (from UniProt P01019), in test [1], the Kd is 200 µM. As for Angiotensin II (peptide), the results for the IL-6 content of the media of NRK-52E cells (ELISA), Ang II 1 μM against control in test [2] and in test [3] were 15 pg/mL and 61 pg/mL, respectively. As for HMGB1 (from UniProt P09429), the Kd in test [4] is 0.6 µM.

Usually Kd stands for the free concentration of one partner at which half of the binding sites on the other are occupied at equilibrium, for simple one-to-one binding.

The record behind these values is article PMC7855779.
